Reference: patent publication WO2017061602A1 (dated 2017)

Assays:
[1] = target: T1, extracellular domain human CD147-His (human, UniProt P35613 140-323); assay: ELISA, extracellular domain human CD147-His on the plate
T1 construct: Made in FreeStyle-293F cells, purified on His-Trap HP; also called extracellular domain CD147-His; human CD147 extracellular domain antigen
T1 sequence: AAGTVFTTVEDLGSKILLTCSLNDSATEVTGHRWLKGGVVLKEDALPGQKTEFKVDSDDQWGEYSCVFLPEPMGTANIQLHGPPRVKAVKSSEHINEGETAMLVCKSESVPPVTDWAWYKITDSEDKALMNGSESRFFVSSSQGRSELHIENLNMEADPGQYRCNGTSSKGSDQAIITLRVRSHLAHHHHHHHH

[2] = target: T2, extracellular domain cynomolgus monkey CD147-His (cynomolgus monkey); assay: ELISA, extracellular domain cynomolgus monkey CD147-His on the plate
T2 construct: Made in FreeStyle-293F cells, purified on His-Trap HP; also called monkey extracellular domain CD147-His; cynomolgus monkey CD147 extracellular domain antigen
T2 chain: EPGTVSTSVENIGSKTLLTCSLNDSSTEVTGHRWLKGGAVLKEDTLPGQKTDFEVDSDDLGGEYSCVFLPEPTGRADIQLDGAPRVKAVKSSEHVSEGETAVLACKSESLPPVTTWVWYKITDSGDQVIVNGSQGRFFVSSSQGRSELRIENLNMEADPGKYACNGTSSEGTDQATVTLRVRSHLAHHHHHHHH

B1: HAb18 (antibody, V domains shown)
VH: EVKLEESGGGLVQPGGSMKLSCVASGFTFSDAWMDWVRQSPEKGLEWVAEIRSKANNHAPYYTESVKGRFTISRDDSKSIIYLQMNNLRAEDTGIYYCTRDSTATHWGQGTLVTVSA
VL: SIVMTQTPTFLVVSAGDRVTITCKASQSVINDVAWYQQKPGQSPKLLIFYASNRNTGVPDRFTGSGYGTDFTFTISTVQAEDLAVYFCQQDYSPPFTFGSGTKLEIK
notes: also called HAb18G; target antibody HAb18
binding result [1]: binds | binding result [2]: no binding
